According to paper PMC3696401:

Biological target: IRBIT (UniProt Q80SW1)
Test: reciprocal co-IP from co-transfected cells
Settings: reference: wild-type IP3R1; sites S1589,S1755

Chain of UniProt Q80SW1 (Q80SW1 whole entry, looked up): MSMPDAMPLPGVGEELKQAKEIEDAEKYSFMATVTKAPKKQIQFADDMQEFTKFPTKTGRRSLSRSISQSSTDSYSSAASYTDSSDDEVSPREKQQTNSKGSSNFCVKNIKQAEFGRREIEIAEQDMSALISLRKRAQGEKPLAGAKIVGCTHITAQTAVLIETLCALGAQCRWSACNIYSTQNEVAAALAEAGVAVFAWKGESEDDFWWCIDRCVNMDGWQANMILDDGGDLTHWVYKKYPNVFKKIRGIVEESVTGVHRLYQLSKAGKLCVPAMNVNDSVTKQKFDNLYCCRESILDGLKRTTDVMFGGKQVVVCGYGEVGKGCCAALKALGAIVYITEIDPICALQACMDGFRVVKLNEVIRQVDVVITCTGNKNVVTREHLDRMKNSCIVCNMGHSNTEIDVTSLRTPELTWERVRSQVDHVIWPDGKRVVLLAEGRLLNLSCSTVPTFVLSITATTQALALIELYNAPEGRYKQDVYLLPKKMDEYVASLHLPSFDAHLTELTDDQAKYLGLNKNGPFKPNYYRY

Substance: IP3R1 (from UniProt P29994-3) S1589A/S1755A (AA)
- binding against the reference: stronger
